Laboratory results published in patent US20240109974A1 (SHANDONG SIMCERE BIOPHARMACEUTICAL, published 2024).

T1: human TNFR2 on the surface of CHO-TNFR2 cells (human, UniProt P20333 23-461)
T1 construct: whole, on cells
T1 sequence (looked up): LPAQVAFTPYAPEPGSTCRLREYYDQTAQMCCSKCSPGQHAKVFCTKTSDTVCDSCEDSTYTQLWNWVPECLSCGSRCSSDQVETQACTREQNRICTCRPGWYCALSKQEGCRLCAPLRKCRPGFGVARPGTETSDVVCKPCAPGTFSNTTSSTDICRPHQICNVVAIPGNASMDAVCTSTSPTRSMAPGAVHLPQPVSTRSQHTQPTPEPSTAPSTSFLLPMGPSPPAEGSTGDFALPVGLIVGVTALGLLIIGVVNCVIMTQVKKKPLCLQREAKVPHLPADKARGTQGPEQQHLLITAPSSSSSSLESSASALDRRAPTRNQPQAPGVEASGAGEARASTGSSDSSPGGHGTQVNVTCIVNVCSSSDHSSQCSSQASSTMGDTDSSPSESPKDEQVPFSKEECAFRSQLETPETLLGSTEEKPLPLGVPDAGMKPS


Legend:
[1] = biological target: T1, human TNFR2 on the surface of CHO-TNFR2 …; experiment: competition flow cytometry on CHO-TNFR2 cells, competitor TNFα-biotin; AUC against 224-WT
Description: (§1) CHO stable cells highly expressing human TNFR2 were used for the experiment (the same as CHO-TNFR2 in Example 4). The CHO-TNFR2 cells were digested, washed twice with DPBS, then stained with Live/Dead (L/D) (20 minutes at room temperature), and plated at a density of 1×10⁵ cells/50 μl/well. A test anti-TNFR2 antibody was diluted to 6 μg/ml with a staining buffer as the starting concentration: the antibody was subjected to 3.33-fold gradient dilution, with a total of 7 concentration points. The diluted antibody was added to the plated cells at 50 μl/well, and the mixture was mixed well by gentle pipetting, and incubated at 4° C. for 30 minutes. Then the diluted 100 ng/ml of human TNFα-biotin was added at 100 μl/well, and the mixture was mixed well by gentle pipetting, and then incubated at 4° C. for 30 minutes. The mixture was washed twice with a staining buffer, and then 0.12 μg/ml PE-streptavidin (BioLegend, Cat #405204) was added at 100 μl/well; the resulting mixture was incubated at 4° C. for 30 minutes. The mixture was washed twice with a staining buffer, and then 150 μl of staining buffer was added to resuspend the cells; signals were detected by a flow cytometer (Thermo Attune NxT). The inhibitory curve of an antibody was drawn with antibody concentration as the abscissa and corresponding MFI value as the ordinate, and fitted with four parameters (GraphPad Prism9) to calculate the IC50 value. The smaller the IC50 value, the stronger the ability of an antibody to inhibit the binding of human TNFα to human TNFR2. The blocking effect of a humanized antibody was normalized to its corresponding human-murine chimeric WT antibody. The higher the percentage value, the better the inhibitory effect of the humanized antibody.

[2] = biological target: T1, human TNFR2 on the surface of CHO-TNFR2 …; experiment: flow cytometry on CHO-TNFR2 cells; AUC against 224-WT
Description: The transfected full-length plasmid of human TNFR2 was purchased from Sino Biological (Cat #HG10417-UT, NCBI Ref Seq: NM_001066.2). The experiment was conducted at a cell density within 80%. The cell medium was discarded; the cells were rinsed with PBS, and digested with 1 ml trypsin for 2 minutes; the digestion was stopped with a Ham's F12 complete medium containing 10% FBS, and then a cell suspension was made. The cell suspension was counted, and then an appropriate amount of cell suspension was centrifuged at 350×g; the supernatant was discarded; a corresponding volume of blocking solution (10% FBS+PBS) at a density of 1×10⁷ cells/ml was added to resuspend the cells, and the mixture was incubated at 4° C. for 30 minutes. After the incubation, the mixture was centrifuged at 350×g to remove the supernatant, and the cells were resuspended in a staining buffer (2% FBS+PBS) to a density of 2×10⁶ cells/ml, and spread onto a 96-well plate, with 50 μl of cell suspension added to each well for later use. The antibody was diluted with PBS for 10-fold gradient dilution from the highest concentration of 20 μg/m (twice the concentration); the diluted antibody was added to the well containing 50 μl of cell suspension, and placed on a microplate shaker for shaking at 500 rpm for 1 minute, so that the antibody was fully mixed with the cells; the mixture was incubated at 4° C. for 1 h. After the incubation, the cells were washed twice with the staining buffer, with 100 μl per well, and centrifuged at 350-g for 5 minutes, and the supernatant was discarded. The PE goat anti-Human IgG Fc antibody (ebioscience, Cat #12-4998-82) was diluted 250-fold with the staining buffer, with a volume of 100 μl per well added to the washed cell wells; the mixture was mixed evenly, and stained at 4° C. for 30 minutes. After the staining, similarly, the cells were washed twice with the staining buffer; finally, the cells were resuspended in 200 μl of staining buffer; signals were detected by a flow cytometer (Thermo Attune NxT). The stronger the signal, the stronger the binding ability of an antibody to TNFR2. The binding curve of an antibody was drawn with antibody concentration as the abscissa and corresponding mean fluorescence intensity (MFI) fold as the ordinate, and fitted with four parameters (GraphPad Prism9) to calculate the EC50 value.

[3] = biological target: T1, human TNFR2 on the surface of CHO-TNFR2 …; experiment: competition flow cytometry on CHO-TNFR2 cells, competitor TNFα-biotin; AUC against 219-WT
Description: as §1

| Binder | % Relative activity (WT antibody/test antibody) [1] | % Relative activity (Test antibody/WT antibody) [2] | % Relative activity (WT antibody/test antibody) [3] |
| --- | --- | --- | --- |
| 224-Hu1 (antibody, V domains shown, Humanized form of #224; also called VH8 + VL6) VH: QVQLVQSGAEVKKPGASVKVSCKASGFNNKDIYMHWVRQAPGQGLEWIGRIDPATGNTKHDPKFQDRVTMTSDTSTNTVYMELSSLRSEDTAVYYCARSPYGDFGAMDYWGQGTLVTVSS VL: DIQMTQSPSSLSASVGDRVTITCTASSSVSSNYLHWYQQKPGKAPKLWIYSTSNLPSGVPSRFSGSGSGTDFTLTISSLQPEDFATYYCHQYHRSPWTFGQGTKVEIK | 99.2% | 96.2% | – |
| 224-Hu7 (antibody, V domains shown, Humanized form of #224; also called VH9 + VL10) VH: QVQLVQSGSELKKPGASVKVSCKASGFNNKDIYMHWVRQAPGQGLEWMGRIDPATGNTKHDPKFQDKAVLSSDTSVSTAYLQISSLKAEDTAVYYCARSPYGDFGAMDYWGQGTLVTVSS VL: DIQMTQSPSSLSASVGDRVTITCTASSSVSSNYLHWYQQKPGKAPKLLIYSTSNLPSGVPSRFSGSGSGTDFTLTISSLQPEDFATYYCHQYHRSPWTFGQGTKVEIK | 91.1% | 91% | – |
| 224-Hu4 (antibody, V domains shown, Humanized form of #224; also called VH9 + VL6) VH: QVQLVQSGSELKKPGASVKVSCKASGFNNKDIYMHWVRQAPGQGLEWMGRIDPATGNTKHDPKFQDKAVLSSDTSVSTAYLQISSLKAEDTAVYYCARSPYGDFGAMDYWGQGTLVTVSS VL: DIQMTQSPSSLSASVGDRVTITCTASSSVSSNYLHWYQQKPGKAPKLWIYSTSNLPSGVPSRFSGSGSGTDFTLTISSLQPEDFATYYCHQYHRSPWTFGQGTKVEIK | 97.3% | 93.1% | – |
| 219-Hu3 (antibody, V domains shown, also called VH5 + VL5) VH: QVQLVQSGAEVKKPGSSVKVSCKASGYSFTNYWMNWVRQAPGQGLEWMGMIHPSDTETRLNQNFKDRVTITADKSTSTAYMELSSLRSEDTAVYYCARGEGLGAARSVSMDYWGQGTLVTVSS VL: DIQMTQSPSSLSASVGDRVTITCRASQDISNYLNWYQQKPDGTVKLLIYYTAILHSGVPSRFSGSGSGTDYSLTISSLQPEDFATYFCQQGNTLPWTFGQGTKVEIK | – | – | 98.5% |
| 219-Hu1 (antibody, V domains shown, also called VH3 + VL5) VH: QVQLVQSGAEVKKPGASVKVSCKASGYSFTNYWMNWVRQAPGQRLEWMGMIHPSDTETRLNQNFKDRVTITRDTSASTAYMELSSLRSEDTAVYYCARGEGLGAARSVSMDYWGQGTLVTVSS VL: DIQMTQSPSSLSASVGDRVTITCRASQDISNYLNWYQQKPDGTVKLLIYYTAILHSGVPSRFSGSGSGTDYSLTISSLQPEDFATYFCQQGNTLPWTFGQGTKVEIK | – | – | 102% |
| 219-Hu5 (antibody, V domains shown, also called VH7 + VL5) VH: QVQLVQSGAEVKKPGSSVKVSCKASGYSFTNYWMNWVRQAPGQGLEWMGMIHPSDTETRLNQNFKDRVTITVDKSTSTAYMELSSLRSEDTAVYYCARGEGLGAARSVSMDYWGQGTLVTVSS VL: DIQMTQSPSSLSASVGDRVTITCRASQDISNYLNWYQQKPDGTVKLLIYYTAILHSGVPSRFSGSGSGTDYSLTISSLQPEDFATYFCQQGNTLPWTFGQGTKVEIK | – | – | 109% |
| 219-Hu4 (antibody, V domains shown, also called VH6 + VL5) VH: QVQLVQSGAEVKKPGSSVKVSCKASGYSFTNYWMNWVKQAPGQGLEWIGMIHPSDTETRLNQNFKDKATLTVDKSTSTAYMELSSLRSEDTAVYYCARGEGLGAARSVSMDYWGQGTLVTVSS VL: DIQMTQSPSSLSASVGDRVTITCRASQDISNYLNWYQQKPDGTVKLLIYYTAILHSGVPSRFSGSGSGTDYSLTISSLQPEDFATYFCQQGNTLPWTFGQGTKVEIK | – | – | 108% |

Continued, values first:

| % Relative activity (WT antibody/test antibody) [1] | % Relative activity (Test antibody/WT antibody) [2] | % Relative activity (WT antibody/test antibody) [3] | Binder |
| --- | --- | --- | --- |
| 105% | 101% | – | 224-Hu2 (antibody, V domains shown, Humanized form of #224; also called VH9 + VL7) VH: QVQLVQSGSELKKPGASVKVSCKASGFNNKDIYMHWVRQAPGQGLEWMGRIDPATGNTKHDPKFQDKAVLSSDTSVSTAYLQISSLKAEDTAVYYCARSPYGDFGAMDYWGQGTLVTVSS VL: DIQMTQSPSSLSASVGDRVTITCTASSSVSSNYLHWYQQKPGSSPKLWIYSTSNLPSGVPSRFSGSGSGTDFTLTISSLQPEDFATYYCHQYHRSPWTFGQGTKVEIK |
| 95.6% | 101% | – | 224-Hu3 (antibody, V domains shown, Humanized form of #224; also called VH9 + VL8) VH: QVQLVQSGSELKKPGASVKVSCKASGFNNKDIYMHWVRQAPGQGLEWMGRIDPATGNTKHDPKFQDKAVLSSDTSVSTAYLQISSLKAEDTAVYYCARSPYGDFGAMDYWGQGTLVTVSS VL: DIQMTQSPSSLSASVGDRVTITCTASSSVSSNYLHWYQQKPGKAPKLLIYSTSNLPSGVPSRFSGSGSGTDFTLTISSLQAEDAATYYCHQYHRSPWTFGQGTKVEIK |
| 94.4% | 88.9% | – | 224-Hu5 (antibody, V domains shown, Humanized form of #224; also called VH9 + VL9) VH: QVQLVQSGSELKKPGASVKVSCKASGFNNKDIYMHWVRQAPGQGLEWMGRIDPATGNTKHDPKFQDKAVLSSDTSVSTAYLQISSLKAEDTAVYYCARSPYGDFGAMDYWGQGTLVTVSS VL: DIQMTQSPSSLSASVGDRVTITCTASSSVSSNYLHWYQQKPGKAPKLLIYSTSNLPSGVPSRFSGSGSGTDYSLTISSLQPEDFATYYCHQYHRSPWTFGQGTKVEIK |
| 99.4% | 90.4% | – | 224-Hu6 (antibody, V domains shown, Humanized form of #224; also called VH8 + VL7) VH: QVQLVQSGAEVKKPGASVKVSCKASGFNNKDIYMHWVRQAPGQGLEWIGRIDPATGNTKHDPKFQDRVTMTSDTSTNTVYMELSSLRSEDTAVYYCARSPYGDFGAMDYWGQGTLVTVSS VL: DIQMTQSPSSLSASVGDRVTITCTASSSVSSNYLHWYQQKPGSSPKLWIYSTSNLPSGVPSRFSGSGSGTDFTLTISSLQPEDFATYYCHQYHRSPWTFGQGTKVEIK |
| – | – | 102% | 219-Hu2 (antibody, V domains shown, also called VH4 + VL5) VH: QVQLVQSGAEVKKPGSSVKVSCKASGYSFTNYWMNWVRQAPGQGLEWMGMIHPSDTETRLNQNFKDKATITADKSTSTAYMELSSLRSEDTAVYYCARGEGLGAARSVSMDYWGQGTLVTVSS VL: DIQMTQSPSSLSASVGDRVTITCRASQDISNYLNWYQQKPDGTVKLLIYYTAILHSGVPSRFSGSGSGTDYSLTISSLQPEDFATYFCQQGNTLPWTFGQGTKVEIK |
